This is an account of results in paper PMC4889030 (Molecular cell, 2016).

Holding throughout (assay): pull-down
Test [1] addresses T1, full length ^FlagCRBN expressed in CRBN-KO 293FT cells (human, UniProt Q96SW2 1-442).
The target in the next test is ^FlagCRBN H357Y (human, UniProt Q96SW2 1-442, H357Y).
Test [2] addresses T1, full length ^FlagCRBN expressed in …. The source holds these as a separate data set.

Like-named read-outs stand apart in the source and are kept apart here. Where no end group is shown, it is not given here.

T1 sequence (Q96SW2 whole entry): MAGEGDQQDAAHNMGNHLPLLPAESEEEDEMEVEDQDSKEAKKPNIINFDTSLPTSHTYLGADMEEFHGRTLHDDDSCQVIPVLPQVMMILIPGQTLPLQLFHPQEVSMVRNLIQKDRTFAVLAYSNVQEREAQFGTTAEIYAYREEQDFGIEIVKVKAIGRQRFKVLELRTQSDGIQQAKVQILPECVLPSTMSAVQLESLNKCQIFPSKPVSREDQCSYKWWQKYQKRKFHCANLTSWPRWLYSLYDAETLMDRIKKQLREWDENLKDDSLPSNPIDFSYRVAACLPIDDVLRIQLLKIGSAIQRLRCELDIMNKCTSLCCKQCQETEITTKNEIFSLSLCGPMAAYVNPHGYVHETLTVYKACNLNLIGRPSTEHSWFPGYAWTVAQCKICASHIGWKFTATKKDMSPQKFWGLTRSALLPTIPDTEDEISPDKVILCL
Sequence of ^FlagCRBN H357Y (Q96SW2 whole entry H357Y): as the sequence (Q96SW2 whole entry) above, with H357Y counted along it

Regarding ASSHLNK(Ac)GIK(Ac)QVYMSLPQ (peptide, UniProt P15104 5-22, looked up, also: biotinylated, place not given here) [biotinylated synthetic GS peptide (amino acids 5-22 of GS), di-acetylated on K11 and K14], the binding result in test [1] was “binds”. Take ASSHLNK(Ac)GIKQVYMSLPQ (peptide, UniProt P15104 5-22, looked up, also: biotinylated, place not given here) [biotinylated synthetic GS peptide (amino acids 5-22 of GS), mono-acetylated on K11]: the binding result (with ^FlagCRBN H357Y; in test [2]) was “binds” in each case.

Turning to ASSHLNKGIK(Ac)QVYMSLPQ (peptide, UniProt P15104 5-22, looked up, also: biotinylated, place not given here) [biotinylated synthetic GS peptide (amino acids 5-22 of GS), mono-acetylated on K14], in test [2], the binding result was “binds”.
